Measurements reported in the supplement of paper PMC12764529.

Assay: folding stability dG unfold (combined trypsin and chymotrypsin); higher = more stable
Protocol: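 Folding stability of de novo designed mini-proteins (<80 aa, no Cys; designed by TrROS, TrMRF, ProteinMPNN and the joint model) was measured by cDNA display proteolysis with trypsin and chymotrypsin. Each protease was used at 11 concentrations in a threefold dilution series plus a no-protease condition. K50 was inferred by Bayesian fitting of sequencing counts, and dG unfold was derived against a sequence-predicted unfolded-state K50 (Tsuboyama et al. method). Sequences shown include variable-length N-terminal GS-type padding (SAGGSAGG...) inside a display construct carrying a PA tag. Rows were kept only if the AF2 dimer inter-PAE was >15, to exclude likely homo-oligomers.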

Sequence	folding stability dG unfold [kcal/mol]
DFLELPGGWKVTEILEKKRLSDGTVEIKAVVKDPNNPVETEIDVKIPIPEVPEVPVEVRLIPGTGELIGILS [r1_411_JUSTAS]	< -1
DMDFKVEDIKVDPDDGKVKIEMPIPNPNMPIAIFAPNGKIKDVKWEHYKEDGRMKIEIPVKSPDEVRAFIFS [r1_138_TrROS]	< -1
DNMDMEPEGYDPDNGHYEWEMRTDNQWTEMTMRPKPRIPIPLEELKNIADYLADQNPDNKEKAEKIAEKLAS [r1_330_TrROS]	< -1
KTYYLKAENAPFEEIVEKAREALEADPEEGAEIVIEVPGNPELLEKLDFDEIIPYDIPERPLYIVRAKAPPS [r1_467_TrMRF]	< -1
MRRTLETDEIRRLEIELRPAPGRTAVLDAVVELRDGTPVPLPFPLRLESGRLDPATVERAEREAVEEALARS [r1_124_TrMRF]	< -1
MTIEIEVTAEDLKEGKPLTAEELAKKLAEELGLEEVEVKVEVKEDGTVKITIEVKPKPPPEVVLPEELKKKS [r1_168_TrROS_Hall]	< -1
MTRTIVAEDMSIEEVKERIEALGAAEPEKGTTVVVEYPGNPEELKKLPIDKIEPREEPERESLVATKTFPAS [r1_467_JUSTAS]	< -1
MVISPALLREARRAGISDEFLKKAGDVIIPSEVANPEEVKELLAHPGVKKVYPVPPEDPEKLAAAKVVLPGS [r1_248_TrMRF]	< -1
NWKILEEEPNPDNGKRVIVIEHEPDPENGQMNMPIELFDPKKGKPRRIPVRMDSPETMIDEIKDQLPPDLIS [r1_156_TrROS]	< -1
SAGAAKEVFHETFPHPAGGPVELARNPGLDWVVLYNAGTGEPTVVPVAADETLVFPAAPGGASTFAVTSAGG [r19_118_TrMRF]	< -1
SAGAPVVEKKRTIPSPLGAPAYLVFVPEEDRIVFTRPGSGEPVELSVPPDSEVEVPAPPSGSLTYRWESAGG [r19_118_JUSTAS]	< -1
SAGASLAPGESAAFTVTTTTTTTESLPLPDGTTVTTTSTTTTTTAHTVTFPAVPVVTMPPDATDPAVRASAG [r5_770_JUSTAS]	< -1
SAGFEKIAEKLGVKPENLEIKDIEDKPVTVPDPKTGKPKERLVPVLYLEFYDPEVGKKVDAEIPLAEVASAG [r5_517_TrMRF]	< -1
SAGGATTPVTVPTTSEEEVEAIIEELNKEGLSDLIPKGGKPIPPPDSLRLVPLVITTTPGSGKTTVTLSAGG [r13_174_JUSTAS]	< -1
SAGGDNVKLRFYDPNGRLKIDEINPENGNIKVEYEGPGKPRERTVDADPDEAIDEIADNFPFPLEIEKSAGG [r13_141_TrROS]	< -1
SAGGFKPRTINIPAKPGALRNILNDLREKSPNYMVHVTNPDKGKPRHWPLDDLKDMPGPFEFRVMKMPKSAG [r5_437_TrROS]	< -1
SAGGGMDTPLYRTLPPPPVVEKREVWLSGPSKEEAEKKAKEVEEEFKKEGLEVEVKIIPAEEAEKLSSAGGS [r8_210_JUSTAS]	< -1
SAGGGMKKYTESTVPLPPGRPDVVERLRAEYPNLEVEREGPADTGTLPTTVKVPAPDGSPLASIELGSAGGS [r8_267_JUSTAS]	< -1
SAGGGMMVNLKFESPTSSSTVPLPVVEIRRLPSPEYEEVVVPDGTRYLFNPKTNTLLEEKEVPPLEELSAGG [r13_636_JUSTAS]	< -1

Sequence	folding stability dG unfold [kcal/mol]
SAGGGSMVETRTLEVEEVEDGTVTLSRTLYPGGLVRLTRTRVPPADPSVAEEVETELVYVSPEEAAASAGGS [r16_161_JUSTAS]	< -1
SAGGGSSMPRRRALPDGTALETTLGDSVATVRATRYVGDRPLETAERVLPDVPPDVDAEVDFDLPPGSAGGS [r8_155_JUSTAS]	< -1
SAGGIPLKEIKEMIENDPGETWTAQIYRMPPGPNGQMQQQTIEFPIKDPEDALDNLPPGYMVHVEPRSAGGS [r16_116_TrROS]	< -1
SAGGIREIADELGMPPGDKVTIDIERPRDGKPQTQEIEFPPDNVEDILDQMGIPPDQMKITKLKVDKDSAGG [r13_681_TrROS]	< -1
SAGGITLEELRGMPPEQLADWLVQEAQEQNKKEGNPNRPVTVEFEYGDQPLKIEITPNGKIEKIELDSAGGS [r16_431_TrROS]	< -1
SAGGKAELAANPGVVRVEVELVDPSGPVALPTREYLYPEGDPAALRAAIEAEIPADLAVARVTFTRLGSAGG [r13_849_JUSTAS]	< -1
SAGGKITITLPNGAKIEIEEEEVEVDGKTYLVFKAKITNKDGSKYLITVVIDKKTKEIVSISIEKLPSAGGS [r8_492_TrROS_Hall]	> 6
SAGGKTVEIPIPGPLTIETAKDLASKLAEEGHEDVPIKITMWHWKREPNGKPERHRHTHTYKLKVPKSAGGS [r16_44_TrROS]	< -1
SAGGMDEEELRELLAEDDATVLTEDPDGLLVAFTLPDGTARVFPVPSRERLDRLIAEVPDATVTTLPASAGG [r13_600_JUSTAS]	< -1
SAGGMITVLEEEVEERGDELVVTRLVRVSSEEDVEALANDGVPDTAREVRRLPDGTLLAELTETVPPPSAGG [r13_506_JUSTAS]	< -1
SAGGMKKRVEIPEELKKAYPDLVVEDQEVPEDSVDVTVRLPTADLKVPQVVLSPDGNPLRSFTLTSSPSAGG [r13_129_JUSTAS]	< -1
SAGGMKTIKRKSKFIKPGKGLSIDRTTELLPGGEVLEPLTFKNPKNGEKIKSFTIRIDPNGNETVENSAGGS [r16_239_JUSTAS]	< -1
SAGGMRVDYKSGKVIPEKTITIERTFSPEVVKTEEDAIELAKQEAEEAGLKDIDLKVELEGDKITVVGSAGG [r13_130_JUSTAS]	< -1
SAGGMVETTETVVEPGRIRVERRVTLPDGTEVEEVEEVPPAAGGVWEVRSRVRRGEGEEEVARREVAPSAGG [r13_728_JUSTAS]	< -1
SAGGMVTIEITDIPEDDPEKAIETAKELVEKIKKEGPPLKVKIKGNTPVFEEVAAELKKLGVETDLESAGGS [r16_450_JUSTAS]	< -1
SAGGNAEEIRDITRDIAEKHGGEVKDVEVEPEPNGRKELTFRMKEDPNTRIKITVDNNEIKITSIQPSAGGS [r8_432_TrROS]	< -1
SAGGPAEFPEGPGVVVGYTYPPDGKPAKWAIPFPDATPEEARERLAKFAEALPIPGAKVVIDDIKPGPSAGG [r13_29_TrMRF]	< -1
SAGGPAEVKIPIMKMEPPKPERVYDPDDGQERWKMEHQMRMEMIPITIRADDNPEEANDIANDFGITSAGGS [r16_467_TrROS]	< -1
SAGGPDDYPIRIAVYPPDGEIKEEITIPNNWTIKYFPNDDPRIMIQDPGNGETVPVKTPEDIKDLIQSAGGS [r8_232_TrROS]	< -1

Sequence	folding stability dG unfold [kcal/mol]
SAGGPNKKIKIVMDPDDPNMPMSEIANFMQKEGFEPVEMVPADNLPPEKAREEAEEEGKPVIEIPFNSAGGS [r16_94_TrROS]	< -1
SAGGPVYFRIKVEQRRPDPENGEPERREQTVSIPFEYDPDNGMPADEFAEELAKTLPPGIREVEIEPFSAGG [r13_335_TrROS]	< -1
SAGGSAFKVPPGNIKEEEDFKFKFPDGNNMKIKIIRYPGKKRLMMENPGNNEPQTMPVEDLKEMLQSAGGSA [r15_329_TrROS]	< -1
SAGGSAGGEKTASFKVKGNLVAKGVTTFYSPTSDEYTIETEIEKVPPGPKPEITPEEIAKNYLLSAGGSAGG [r6_148_JUSTAS]	< -1
SAGGSAGGGKVPKPVPGPLTILFDVAEDELPPEEIRKLFPDAKVYRFPKGLRVTVPVNGKLVPGSAGGSAGG [r6_738_TrMRF]	< -1
SAGGSAGGGMITVPLSEEISMANLPEEERAAGEELGPGSVIRKLLEIKKYPVKPFRFIEKDKILSAGGSAGG [r6_547_JUSTAS]	< -1
SAGGSAGGMELVSEERLPDGSRRFTVRVDPDKSLSLTLPDAGEPVAATVTETFPEEGLVTVELASAGGSAGG [r6_177_JUSTAS]	< -1
SAGGSAGGPPMEPIPFRVRVDEVEHDPPNGNVVITIKDGDKNPHTINIPPEMAKNMPIEPGDELSAGGSAGG [r6_915_TrROS]	< -1
SAGGSAGGQKIKIDDVQKNPGNGNYYVRIRPPGKPYEYQFPPGDSADDIADELELNGIDDIEVYSAGGSAGG [r6_83_TrROS]	< -1
SAGGSAGGRIRDPDGNPFKIKKVEPQPSPNGQPMIKFRYPDNGKEHTIPRDNLPPWLPDNAKPVSAGGSAGG [r6_371_TrROS]	< -1
SAGGSAGGRVITLKEEELKKLIEEGKVDSVDVEKLPDGTVKAKPIIKEKEELSPKNKEKIFELKSAGGSAGG [r6_279_JUSTAS]	< -1
SAGGSAGGSAAPIPPDQSATSLTLLPDGTVRKTTTTYPPPEFVTTTTTTIPISPEEGAAAGSAGGSAGGSAG [r3_437_JUSTAS]	< -1
SAGGSAGGSAEPDPSSPEPYEVLEVVPRTIVSRVEQPGNPQLLRQTVDVVIIKNPSNGLLDSAGGSAGGSAG [r3_391_JUSTAS]	< -1
SAGGSAGGSAGAPDEPIQITMRLKYPDGQKREHNTPFPPGKDIEIKNMPPGAKIENIEITSAGGSAGGSAGG [r11_181_TrROS]	< -1
SAGGSAGGSAGDLGLEDDTFILKATYPDGTPATIPLKKSEISKISKDNIKSIEFYPKSKLSAGGSAGGSAGG [r11_779_JUSTAS]	< -1
SAGGSAGGSAGDNGKPEVKPVRIPIFIPGPKEQAKRIANYLYGFGMPIDVEVFDPDGKPISAGGSAGGSAGG [r11_703_TrROS]	< -1
SAGGSAGGSAGEITIRMPMPDPDGGRRRIQFTIEKIKLPPGQKIKIVSVGPNGSFTIKPKSAGGSAGGSAGG [r11_733_TrROS]	< -1
SAGGSAGGSAGEPVKIPITIKMRDNGKPREQPFKVEVEPNPDGNTQHKLNMPEGNITEIESAGGSAGGSAGG [r11_816_TrROS]	< -1
SAGGSAGGSAGGEIKVRIDEYDPPSGFFRIEPPDGRTRQIPVPPGMNPEDLKGDTVTLKPSAGGSAGGSAGG [r7_296_TrROS]	< -1
